experiment: yeast display, Sf9 membrane polyspecificity reagent, FACS + sequencing; frameworks hold sequencing errors
In short: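 In a synthetic yeast display library (Saccharomyces cerevisiae BJ5465), nanobody expression was induced with galactose for 36–48 hours. FACS gates were set low and high (top ~1%) using anti-HA fluorescence for expression and streptavidin fluorescence for binding of the Sf9 membrane reagent. Each polyreactivity label is drawn from the gate of origin.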

Sequence | polyreactivity (PSR sort gate)
QVQLVESGGGLVQAGGSLRLSCAASGVILYFHAMGWYRQAPGKERELVAAITSDGGSTYYADSVKGRFTISRDDAKNTVYLQMNSLKPEDTAVYYCAADASTWYTEEYWGQGTQVTVSS | low polyreactivity
QDQLVESGGGLVQAGGSLRLSCAASGLTFDRYTMGWYRQAPGKERELVAAITRGGGNTYYADSVKGRFTISRDNAKNTVYLQMNSLKPEDTAVYYCAANRRDGYDYWGQGTQVTVSS | low polyreactivity
QVQLVESGGGLVQAGGSLRLSCAASGSTFPYNAMGWYRQAPGKERELVAAITWRAGRTYYADSVKGRFTSSRDNAKNTVYLQMNSLKPEDTAVYYCAKSYQRGVNHYEYWGQGTQVSVSS | high polyreactivity
QVQLVESGGGLVHAGGRLRLSCAASGRTFGPYVMGWYRQSPGKERELVASISSADSTYYADSVKVRFTFSRDNAKNTFYLQMNSLKPEDTAVYYCAAEWYDYLYRMDYWGQGTQVTVSS | low polyreactivity
QVQLVESGGGLVQAGGSLRLSCAASGITGHNAMGWYIQAPGKERELVARISSGGRTNYADSVKGRFTISRDNAKNTVYLQMNSLKPEDTAVYYCAAGFRVGSFLRYNYWGQGTQVTVSS | high polyreactivity
QVQLVESGGGLVQAGGRLRLSCAASGSILVFYARGWYRQAPGKERELVAAITSGASTNYADSVKGRFTISRDNAKNTVYLQMNSLKPEDTAVYYCAAGFQTRTPLNEFDYWGQGTQVTVSS | low polyreactivity
QVQLVESGGGLVQAGGSLRLSCAASGRTFYKYAMGWYIQAPGKERELVARISGRGGRTYYADSVKGRFTISRDNAKNTVYLQMNSLKPEDTEVYYCASDWVPINVKSLVVTYDYWGQGTQVTVSS | low polyreactivity
QVQLVESGGGLVQAGGSLRLSCAASGLIFYINAMGWYRQAPGKERELVAVISGGGSTNYADSVKGRFTISRDNAKNTVYLQMNSLKPEDTAVYYCNARRSHSYRHYDYWGQGTQVTVSS | low polyreactivity
QVQLVESGGGLVQEGGSLRLSCAASGRTSGFNTMGWYRQAPRKERELVAAISFSGGSTYYADSVKGRFTISRDNAKNTVYLQMNSLNPEDTAVYYCNALYRYLYRSGDYWGHGTQVTVSS | low polyreactivity
QVQLVESGGGLVQAGGSLRLSCAASGRTFSFYAMGWYRQAPGKERELVAGIDWDDGSTSYADSVKGRFTISRDNAKNTVYLQMNSLKPEDTAVYYCAADIGYDVYNDYDYWGQGTQVTVSS | low polyreactivity
QVQLVESGGGLVQAGGSLRLSCAASGSIFIPNAMGWYRQAPGTERELVAAISLSDTTTYYADSVKGRFTISRDNAKNTVYLQMNSLKPEDTAVYYCAADYWFYPTSPDMDYWGQGTQVTVSS | low polyreactivity
QVQLVESGGGLVQAGGSLRLSCAASGSTFFGNTMGWYRQAPGKERELVAAITYRGSTYYADSVKGRFTISRDNAKNTVYLQMNSLKPEDTAVYYCAADGRWYNSESEYDYWGQGTQVTVSS | low polyreactivity
QVQLVESGGGLVQAGGSLRLSCAASGRIFQTYAMGWYRQAPGKERELVAAISSRGRTYYADSVKGRFTISRDNAKNTVYLQMNSLKPEDTAVYYCAARDWSHRPRGYDYWGQGTQVTVSS | high polyreactivity
QVQLVESGGGLVQAGGSLRLSCAASGSTFRGYAMGWNRPAPGKETELVAGITKRGGSTYYADSVKGRFTISRDNAKNTVYLQMNSLKPEDTAVYYCAAGKHRQAYEHDYWGQGTQVTVSS | high polyreactivity
QVQLVESGGGLVQAGGSLRLSCAASGSIFYTNAMGWYRQAPGKERELVAAYADSVKGRFTISRDNAKNTVYLQMNSLKPEDTAVYYCNAVLPIYRYLYEGDYWGQGTQVTVSS | low polyreactivity
QVQLVESGGGLVQAGGSLSLSCAASGRIFRYNAMGWYRQAPGKERELVAGINGRSGSTTYADSVKGRFTISRDNAKNTVYLQMNSLKPEDTAVYYCAIVYGGYHYAFRSSRGMGYWGQGTQVTVSS | high polyreactivity
QVQLVESGGGLVQAGGSLRLSCADSGSTFRPYAMGWNRQAPGKERELVAAISSGDSTYYADSVKGRFTISRDNAKNTVYLQMNSLKPEDTAVYYCAKRKYWHRGGGYWGQGTQVTVSS | high polyreactivity
QVQLVESVGGLVQAGGSLRLSCAASGFTLFFYAMGWYRQAPGKERELVARITSRAGRTYYADSVKGRFTISRDNAKNTVYLQMNSLKPEDNAVFYCNTRDFSGYVHALSLYDYWGQGTQVTVSS | high polyreactivity
QVQLVESGGGLVQAGGSLRLICAASGFTFYIYAMGWYRQAPGKERELVAAINFRGGSTYYADSVKGRFTLSRDNAKNTVYLQMNSLKPEDTAVYYCAAVPRTYSGYYYWGQGTKVTVSS | high polyreactivity
QVQLVESGGGLVQAGGSLRLSCAASGRSFRYYAMGWYRQAPGKERELVAAISVSGGTTYYADSVKGRFTISRDNAKNTVYLQMNSLKPEDTAVYYCNAYYLAEYDYWGQGTQVTVSS | high polyreactivity
QVQLVESGGGLVQAGGSLRLSCAASGSIFYENAMGWYRQAPGKERELVAAISWNAGSTYYADSVKGRFTISRDNAKNTVYFQMNSLKPEDTAVYYCATTADGIRYDYWGQGTQVTVSS | low polyreactivity
QVQLVESGGGLVPAGGSLRLSCAASGRTFRFNAMGWYRQAPGKERELVAAITKSSGSTDYADSVKGRFTISRDNAKNTVYLQMNSLKPEDSAVYYCAVRIFVPYYSDWSFPTQYNYWGQGTQLTVSS | high polyreactivity

Sequence | polyreactivity (PSR sort gate)
QVQLVESGGCLVQAGGSLRLSCAASGSIFYKYAMGWYRQAPGKERELVAAITSGGRTTYADSVKGRFTISRDNAKNTVYLQMNSLKPEDTAVYYCAAVVFSRRYWVKFYYWGQGTQVNVSS | high polyreactivity
QVQLVESGGGLVQAGGSLRLSCAASGRTFYIYAMGWYRPAPGKERELVAAITYGGGRTFYADSVKGRFTISRDNAKNTVYLQMNSLKPEDTAVYYCAATVRGKRSTYDYWGQGTQVTVSS | high polyreactivity
QVQLVESGGGLVQAGGSLRLSCAASGIIFRYYAMGWYIQAPGKERELVARITSGARTTYADSVKGRFTISRDNAKNTVYLQMNSLKPEDSAVYYCNAVRRYGLEYNYWGQGTQVTVSS | high polyreactivity
QVQLVESGGGLVQAGGILRLSCAASGRIFYGYAMGWYRQAPGKERELVAAISSDGRTYYADSVKGRFTISRDNAKNTVYLQLNSLKPEDTAVYYCAKVPYSGYDYVYWDPSIFEYDYWGQGTQVTVSS | low polyreactivity
QVQLVESGGGLVQAGGSLRLSCAASGSIFELYAMGWYRQAPGKERELVAAISSTGGRTYYADSVKGRFTISRDNAKNTVYLQMNSLKPEDTAVYYCNKVWPRVHPWNYDYWGQGTQVTVSS | high polyreactivity
QVQLVESGGGLVQAGGSLRLSCAASGFTFYGYAMGWYRQAPGKERELVAAISSSGTSTYYADSVKGRFTISRDNEKNTVYLQMNSLKPEDTAVYYCAKDFYRRYYSWGQGTQVTVSS | high polyreactivity
QVQLVESGVGLVQAGRNLRLSCAASGIIFYLNAMGWYRQAPGKERELVAAISNGTSTNYADSVKGRFTISRDNAKNTVYLQMNSLKPEDTAVYYCAADDLRYNSRSSNYRGDSWGQGTQVTVSS | low polyreactivity
QVQLVESGGGLVQAGGSLRLSCAASGRIFGRNVMGWYRQAPGKERELVAAITTGGGSTYYADSVKGRFTISRDNAKNTVYLQMNSLKPEDTAVYYCATDRRHEYSSRRYYYWGQGTQVTVSS | high polyreactivity
QVQLVESGGGLVQAGGSLRLSCAASGSIFASYGLGWYRQAPGKARELVAAITSRGTSTYYADSVKGRFTISRDNAKNTVDLQMHSLKPEETAVYYCAARLYGSAPQHEYWGQGTQVTVSS | low polyreactivity
QVQLVESGGGLVQAGGSLRLSCAASGFIFWYYAMGWYRQAPGKERELVATITRGGSTYYADSVKGRFTISRDNAKNTFYLQMNSLKPEDTAVYYCNAVRPKIYDYWGQGTQVTVSS | high polyreactivity
QVQLVESGGGLVQAGGSLRLSCAASGFSFRGYAMGWYRQAPGKERELVAAINYSGGSTYYADSVKGRFTISRDNAKNTVYLQMNSLKPEDTAVYYCAAGKRGDDDYWGQGTQVTVSS | high polyreactivity
QVQLVESGGVLVQAGGRLRLSCAASVFGRYAMGWYRQAPGKEREMVARISSSCGSTHYADSVKGRFTISRDNAKNTVYLEMNSLKPEDTAVYYCAARSYDTYWWYGYWGQGTQVTVSS | high polyreactivity
QVQLVESGGGLDQAGGSLRLTCAASGGTFVSNAMRWSRQAPGKERELVAAISSSTGSTYYADSVKGRFTISRDNAKKTVYLQMISLKPEDTAVYYCAADSWWDYDSWGQGPQVTVSS | low polyreactivity
QVQLVESGGGLVQAGGSLRLSCAASGSIFQYNVKGWYIQAPGTERELVAAITSGGSTYYADSVKGRFTISRDNAKNTVYLQMNSLKPEDTAVYYCARDIRRKGFRYDYWGQGTQVTVSS | high polyreactivity
QVQLVESGGGLVQAGGSLRLSCAASGSTFDDYVMGWYRQAPGKERELVAGINSRGTSTDYADSVKGRFTISRDNAKNTVYLQLNSLKPEDTAVYYCAADDSHGYDYWGQGTQVTVSS | low polyreactivity
QVQLVESGGGLVQAGGSLRLSCAASGRIFLYYTMGWYRQAPGKERELDAAITRSGGSTYYADSVKGRFTISRDNAKNTDYLQMNSLKPEDTAVYYCNRAYVRYVPMNYWGQGTQVTVSS | high polyreactivity
QVQLVESGGGIVQAGGSLPLSSAASGSTFPYNTMGWYIQAPGKERELVAAISQRGGSTYADSVKGRFTISRDNAKNTVYLEMNSLKPEDTAVYYCNKRNVYYSYPFDYDYWGQGTQVTVCS | low polyreactivity
QVQLVESGGGLVQAGGSLRLSCAASGITFAKYAMGWYRQAPGKERELVAAISTSGGSTYYADSVKGRFTISRDNAKNTVYLQMNSLKPEDTAVYYCNVDTYIWYYLRYYNYWGQGTQVTVSS | high polyreactivity
QVQLVESGGGIVQAGGSLRLSSAASGINFRYYAMGSSRPAPGKDRELVAVKSRDGTTYYADSVKGRFTISRDNAKNTVYLPMNSLKAADTAVYYCAKKAWVIYNRKFSSGYDYWGQGTQVNVSS | low polyreactivity
QVQLVESGGGLVQAGGSLRLSCAASGNTYDPNAMGWYRQAPGKERELVAAISSDGSTKYADSVKGRFTISRDNAKNTVYLQMNSLKPEDTAVYYCAADHGYWYWYGGDNSWGQGTQVTVSS | low polyreactivity
QVQLVESGGGLVQAGGSLRLSCAASGFSFATYAMGWYRQAPGKERELVAAISSTGGRTYYAVSVKGRFTISRDNAKNNVYLQMNSLKPEDTAVYYCAADWRVTYDYWGQGTQVTVSS | high polyreactivity

— the nanobody polyreactivity screen of Harvey et al. (2022)
